Test results as given in patent US20190137501.

Target: epidermal growth factor receptor (EGFR)

B1: protein-tyrosine phosphatase 1b (PTP1b) (protein)
chain: MEMEKEFEQIDKSGSWAAIYQDIRHEASDFPCRVAKLPKNKNRNRYRDVSPFDHSRIKLHQEDNDYINASLIKMEEAQRSYILTQGPLPNTCGHFWEMVWEQKSRGVVMLNRVMEKGSLKCAQYWPQKEEKEMIFEDTNLKLTLISEDIKSYYTVRQLELENLTTQETREILHFHYTTWPDFGVPESPASFLNFLFKVRESGSLSPEHGPVVVHCSAGIGRSGTFCLADTCLLLMDKRKDPSSVDIKKVLLEMRKFRMGLIQTADQLRFSYLAVIEGAKFIMGDSSVQDQWKELSHEDLEPPPEHIPPPPRPPKRILEPHNGKCREFFPNHQWVKEETQEDKDCPIKEEKGSPLNAAPYGIESMSQDTEVRSRVVGGSLRGAQAASPAKGEPSLPEKDEDHALSYWKPFLVNMCVATVLTAGAYLCYRFLFNSNT
  EGFR Y1173 phosphorylation (semi-quantitative Western blot): inhibition of PTP1b increased EGFR Y1173 phosphorylation in GFP control cells treated with 0.25 nM EGF
